According to publication PMC6530869:

Columns and labels:
Conditions in all cases: SpdR and RtrB: 20 mM HEPES pH 7.8, 4 mM MgCl2, 37 mM KCl, 1 mM CaCl2, 0.75 mM DTT, 8% glycerol, 75 ug/ml BSA; RtrA: 10 mM Tris pH 7.6, 2 mM MgCl2, 50 mM KCl …
[1] = target: T1, RtrA (Caulobacter crescentus (NA1000?)) (UniProt A0A0H3CB76); assay: competition
T1 sequence: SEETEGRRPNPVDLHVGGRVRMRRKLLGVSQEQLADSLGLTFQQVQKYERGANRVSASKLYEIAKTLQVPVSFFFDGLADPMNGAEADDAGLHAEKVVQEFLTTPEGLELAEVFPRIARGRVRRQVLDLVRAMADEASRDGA

[2] = target: T2, RtrB (Caulobacter crescentus (NA1000?)) (UniProt A0A0H3C9Q5); assay: competition
T2 sequence: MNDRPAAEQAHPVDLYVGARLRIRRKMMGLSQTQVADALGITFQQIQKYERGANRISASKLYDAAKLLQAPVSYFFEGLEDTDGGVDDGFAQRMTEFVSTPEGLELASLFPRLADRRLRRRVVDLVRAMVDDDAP

[3] = target: T3, SpdR(D64E) D64E (Caulobacter crescentus (NA1000?)) (UniProt A0A0H3C6B9); assay: EMSA
T3 sequence: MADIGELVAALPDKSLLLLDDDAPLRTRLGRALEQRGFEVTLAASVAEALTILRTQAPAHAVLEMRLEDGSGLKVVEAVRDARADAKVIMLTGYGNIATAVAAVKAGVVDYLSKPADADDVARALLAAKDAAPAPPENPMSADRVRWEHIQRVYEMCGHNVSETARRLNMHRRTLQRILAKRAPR

[4] = target: T1, RtrA (Caulobacter crescentus (NA1000?)); assay: EMSA
[5] = target: T2, RtrB (Caulobacter crescentus (NA1000?)); assay: EMSA

| Sequence | binding [1] | binding [2] | binding [3] | binding [4] | binding [5] |
| --- | --- | --- | --- | --- | --- |
| TGGTGGTCCTGATCCTCCTGCAGCGACCGATCGTGCATCGCGCGCTGGTTCCCGCGCTCCTGCTCGCCTGGCTGGTCCTGAACGGGACGGACGTGATGCACTACAGCTAGGGCTCGGCGGCTCTGGTAAACAACCCAACCCCGATCAACGAAGGTTTAGAAAGCTTTAAGAGAAACGTTGCGAATTGTAAAATTCTTCTCTGGGTTGAAACCCATTTCGGGTGTATCGATGAGGTGTCGGGCCATTTATTGAGCGCGGACAGGATGTTGTCAGTG (double strand) [unlabeled specific hfiA competitor] | binds | binds |  |  |  |
| CTAGGGACTGCCATCTTCGGCTGTATTTCAGATTTGTTTCCGCATTGTGGCTGCGACGAAATGTCGCGGTACCCGCTTGTGCGCTGTTTTGACGCGATTTCGTCATTGACGGCTCTCCTCACGCGAGAACACTGTTCTTGTAGTGCTTGCTCCGATGGGCTGATTGGGCAAGCCAGAGGGGTGGGATGTCTGGTTACGA (double strand) [cspD promoter probe] |  |  | binds |  |  |
| TGGTGGTCCTGATCCTCCTGCAGCGACCGATCGTGCATCGCGCGCTGGTTCCCGCGCTCCTGCTCGCCTGGCTGGTCCTGAACGGGACGGACGTGATGCACTACAGCTAGGGCTCGGCGGCTCTGGTAAACAACCCAACCCCGATCAACGAAGGTTTAGAAAGCTTTAAGAGAAACGTTGCGAATTGTAAAATTCTTCTCTGGGTTGAAACCCATTTCGGGTGTATCGATGAGGTGTCGGGCCATTTATTGAGCGCGGACAGGATGTTGTCAGTG (double strand) [hfiA promoter probe] |  |  | no binding | binds | binds |
